± gives the standard deviation of the averaged measurements.
B1: library; a variant is named by its letters at N, in order (parent)
chain: GCUGUCACCGAGAAACUGUGAAGUAUAUCUUAAACCUGGGCACUUAAAAGAUAUAUGGAGUUAGUAGUGCAACCUGCUCGGUCUGAUGAGUCCNNNNNNGGACGAAACAGC

How the values were obtained:
cyclic di-GMP [1] = variants of: B1; assay: normalized RNA/DNA level without ligand (relative to sTRSVctl = 100) (log10 (% of sTRSVctl)); HEK293T; ligand: cyclic di-GMP (c-di-GMP-II aptamer); higher = less ribozyme self-cleavage, higher mRNA level; details: reporter: mCherry (pCS4076), ligand present: no
Method in brief: (§1)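 Ribozyme switch library plasmids with mCherry reporters (eGFP in certain ligand experiments) went into HEK293T cells at 4 µg per 6-well well. Where ligand was used, it was applied 1 h before transfection, and total RNA was extracted with EDTA 72 h later for reverse transcription, amplification, barcoding and sequencing. RNA level is the RNA-to-DNA read ratio normalized to a spiked-in non-cleaving sequence or to the leading sequences, then scaled and log-transformed. Scaling was ×100 with log10, the leading set comprised 25 sequences, and the cutoff was ≥100 DNA reads.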

cyclic di-GMP [2] = variants of: B1; assay: normalized RNA/DNA level with ligand (relative to sTRSVctl = 100) (log10 (% of sTRSVctl)); HEK293T; ligand: cyclic di-GMP (c-di-GMP-II aptamer); ligand concentration (+) RNA-Seq: 1 mM; higher = less ribozyme self-cleavage, higher mRNA level; details: reporter: mCherry (pCS4076), ligand present: yes
Method in brief: as §1

Variant | normalized RNA/DNA level without ligand (log10) (cyclic di-GMP [1]) | normalized RNA/DNA level with ligand (log10) (cyclic di-GMP [2])
GCUGUCACCGAGAAACUGUGAAGUAUAUCUUAAACCUGGGCACUUAAAAGAUAUAUGGAGUUAGUAGUGCAACCUGCUCGGUCUGAUGAGUCCACUUUCGGACGAAACAGC [ACUUUC] | 1.73 ± 0.042 | 1.85 ± 0.13
GCUGUCACCGAGAAACUGUGAAGUAUAUCUUAAACCUGGGCACUUAAAAGAUAUAUGGAGUUAGUAGUGCAACCUGCUCGGUCUGAUGAGUCCACUUUGGGACGAAACAGC [ACUUUG] | 1.59 ± 0.037 | 1.76 ± 0.12
GCUGUCACCGAGAAACUGUGAAGUAUAUCUUAAACCUGGGCACUUAAAAGAUAUAUGGAGUUAGUAGUGCAACCUGCUCGGUCUGAUGAGUCCACUUGCGGACGAAACAGC [ACUUGC] | 1.69 ± 0.029 | 1.83 ± 0.084
GCUGUCACCGAGAAACUGUGAAGUAUAUCUUAAACCUGGGCACUUAAAAGAUAUAUGGAGUUAGUAGUGCAACCUGCUCGGUCUGAUGAGUCCACUUGUGGACGAAACAGC [ACUUGU] | 1.668 ± 0.004 | 1.83 ± 0.1
GCUGUCACCGAGAAACUGUGAAGUAUAUCUUAAACCUGGGCACUUAAAAGAUAUAUGGAGUUAGUAGUGCAACCUGCUCGGUCUGAUGAGUCCACUUGGGGACGAAACAGC [ACUUGG] | 1.59 ± 0.048 | 1.75 ± 0.13
GCUGUCACCGAGAAACUGUGAAGUAUAUCUUAAACCUGGGCACUUAAAAGAUAUAUGGAGUUAGUAGUGCAACCUGCUCGGUCUGAUGAGUCCUCUUGUGGACGAAACAGC [UCUUGU] | 1.732 ± 0.004 | 1.88 ± 0.1
GCUGUCACCGAGAAACUGUGAAGUAUAUCUUAAACCUGGGCACUUAAAAGAUAUAUGGAGUUAGUAGUGCAACCUGCUCGGUCUGAUGAGUCCUCUUGGGGACGAAACAGC [UCUUGG] | 1.84 ± 0.039 | 1.93 ± 0.15
GCUGUCACCGAGAAACUGUGAAGUAUAUCUUAAACCUGGGCACUUAAAAGAUAUAUGGAGUUAGUAGUGCAACCUGCUCGGUCUGAUGAGUCCUCUUGCGGACGAAACAGC [UCUUGC] | 1.752 ± 0.0056 | 1.88 ± 0.11
GCUGUCACCGAGAAACUGUGAAGUAUAUCUUAAACCUGGGCACUUAAAAGAUAUAUGGAGUUAGUAGUGCAACCUGCUCGGUCUGAUGAGUCCCCUUGCGGACGAAACAGC [CCUUGC] | 1.72 ± 0.059 | 1.83 ± 0.085
GCUGUCACCGAGAAACUGUGAAGUAUAUCUUAAACCUGGGCACUUAAAAGAUAUAUGGAGUUAGUAGUGCAACCUGCUCGGUCUGAUGAGUCCCCUUGGGGACGAAACAGC [CCUUGG] | 1.76 ± 0.081 | 1.9 ± 0.15
GCUGUCACCGAGAAACUGUGAAGUAUAUCUUAAACCUGGGCACUUAAAAGAUAUAUGGAGUUAGUAGUGCAACCUGCUCGGUCUGAUGAGUCCCCUUGUGGACGAAACAGC [CCUUGU] | 1.75 ± 0.058 | 1.86 ± 0.1
GCUGUCACCGAGAAACUGUGAAGUAUAUCUUAAACCUGGGCACUUAAAAGAUAUAUGGAGUUAGUAGUGCAACCUGCUCGGUCUGAUGAGUCCUCUUUUGGACGAAACAGC [UCUUUU] | 1.744 ± 0.012 | 1.84 ± 0.073
GCUGUCACCGAGAAACUGUGAAGUAUAUCUUAAACCUGGGCACUUAAAAGAUAUAUGGAGUUAGUAGUGCAACCUGCUCGGUCUGAUGAGUCCUCUUUCGGACGAAACAGC [UCUUUC] | 1.755 ± 0.014 | 1.86 ± 0.089
GCUGUCACCGAGAAACUGUGAAGUAUAUCUUAAACCUGGGCACUUAAAAGAUAUAUGGAGUUAGUAGUGCAACCUGCUCGGUCUGAUGAGUCCUCUUUGGGACGAAACAGC [UCUUUG] | 1.731 ± 0.0025 | 1.89 ± 0.069
GCUGUCACCGAGAAACUGUGAAGUAUAUCUUAAACCUGGGCACUUAAAAGAUAUAUGGAGUUAGUAGUGCAACCUGCUCGGUCUGAUGAGUCCUCUUUAGGACGAAACAGC [UCUUUA] | 1.65 ± 0.031 | 1.84 ± 0.11
GCUGUCACCGAGAAACUGUGAAGUAUAUCUUAAACCUGGGCACUUAAAAGAUAUAUGGAGUUAGUAGUGCAACCUGCUCGGUCUGAUGAGUCCGCUUUUGGACGAAACAGC [GCUUUU] | 1.67 ± 0.03 | 1.8 ± 0.11
GCUGUCACCGAGAAACUGUGAAGUAUAUCUUAAACCUGGGCACUUAAAAGAUAUAUGGAGUUAGUAGUGCAACCUGCUCGGUCUGAUGAGUCCGCUUUAGGACGAAACAGC [GCUUUA] | 1.63 ± 0.023 | 1.83 ± 0.1
GCUGUCACCGAGAAACUGUGAAGUAUAUCUUAAACCUGGGCACUUAAAAGAUAUAUGGAGUUAGUAGUGCAACCUGCUCGGUCUGAUGAGUCCGCUUUCGGACGAAACAGC [GCUUUC] | 1.58 ± 0.022 | 1.75 ± 0.11
GCUGUCACCGAGAAACUGUGAAGUAUAUCUUAAACCUGGGCACUUAAAAGAUAUAUGGAGUUAGUAGUGCAACCUGCUCGGUCUGAUGAGUCCGCUUUGGGACGAAACAGC [GCUUUG] | 1.66 ± 0.03 | 1.83 ± 0.13
GCUGUCACCGAGAAACUGUGAAGUAUAUCUUAAACCUGGGCACUUAAAAGAUAUAUGGAGUUAGUAGUGCAACCUGCUCGGUCUGAUGAGUCCGGAAAAGGACGAAACAGC [GGAAAA] | 1.3 ± 0.025 | 1.49 ± 0.12
GCUGUCACCGAGAAACUGUGAAGUAUAUCUUAAACCUGGGCACUUAAAAGAUAUAUGGAGUUAGUAGUGCAACCUGCUCGGUCUGAUGAGUCCGCUUGGGGACGAAACAGC [GCUUGG] | 1.59 ± 0.023 | 1.8 ± 0.072
GCUGUCACCGAGAAACUGUGAAGUAUAUCUUAAACCUGGGCACUUAAAAGAUAUAUGGAGUUAGUAGUGCAACCUGCUCGGUCUGAUGAGUCCGCUUGCGGACGAAACAGC [GCUUGC] | 1.77 ± 0.057 | 1.87 ± 0.17
GCUGUCACCGAGAAACUGUGAAGUAUAUCUUAAACCUGGGCACUUAAAAGAUAUAUGGAGUUAGUAGUGCAACCUGCUCGGUCUGAUGAGUCCGCUUGUGGACGAAACAGC [GCUUGU] | 1.577 ± 0.005 | 1.75 ± 0.15
GCUGUCACCGAGAAACUGUGAAGUAUAUCUUAAACCUGGGCACUUAAAAGAUAUAUGGAGUUAGUAGUGCAACCUGCUCGGUCUGAUGAGUCCCCUUUCGGACGAAACAGC [CCUUUC] | 1.7 ± 0.021 | 1.85 ± 0.098
GCUGUCACCGAGAAACUGUGAAGUAUAUCUUAAACCUGGGCACUUAAAAGAUAUAUGGAGUUAGUAGUGCAACCUGCUCGGUCUGAUGAGUCCCCUUUUGGACGAAACAGC [CCUUUU] | 1.59 ± 0.065 | 1.77 ± 0.073
GCUGUCACCGAGAAACUGUGAAGUAUAUCUUAAACCUGGGCACUUAAAAGAUAUAUGGAGUUAGUAGUGCAACCUGCUCGGUCUGAUGAGUCCCCUUUGGGACGAAACAGC [CCUUUG] | 1.59 ± 0.078 | 1.77 ± 0.053

From the supplement of paper PMC6757056
